{
  "source": "paper PMC2646082",
  "test_in_all_cases": "ITC",
  "key": {"[1]": {"target": "T1, HIV-1 nucleocapsid protein (NC) (HIV-1 NL4-3, UniProt P12493 378-432)"}, "[2]": {"target": "T1, HIV-1 nucleocapsid protein (NC)", "remark": "listed apart in the source"}, "[3]": {"target": "T1, HIV-1 nucleocapsid protein (NC)", "remark": "listed apart in the source"}, "[4]": {"target": "T1, HIV-1 nucleocapsid protein (NC)", "remark": "listed apart in the source"}, "[5]": {"target": "T1, HIV-1 nucleocapsid protein (NC)", "remark": "listed apart in the source"}, "[6]": {"target": "T1, HIV-1 nucleocapsid protein (NC)", "remark": "listed apart in the source"}, "[7]": {"target": "T1, HIV-1 nucleocapsid protein (NC)", "remark": "listed apart in the source"}, "[8]": {"target": "T1, HIV-1 nucleocapsid protein (NC)", "remark": "listed apart in the source"}},
  "note": "Read-outs that look alike come from different tables or passages of the source.",
  "data": [
    {"binder": "UGUGCCCUUCU (ssRNA)", "note": "[U5GGU (G112U)]", "values": [
      {"measurement": "Kd", "setting": "[1]", "result": "81 ± 8", "unit": "nM"}
    ]},
    {"binder": "UGUUCCCGUCU (ssRNA)", "note": "[U5GUG (G108U)]", "values": [
      {"measurement": "Kd", "setting": "[2]", "result": "239 ± 20", "unit": "nM"}
    ]},
    {"binder": "UGUUCCCUUCU (ssRNA)", "note": "[U5GUU (G108U;G112U)]", "values": [
      {"measurement": "Kd", "setting": "[3]", "result": "880 ± 91", "unit": "nM"}
    ]},
    {"binder": "UUUUCCCUUCU (ssRNA)", "note": "[U5UUU (G106U;G108U;G112U)]", "values": [
      {"measurement": "binding result", "setting": "[4]", "result": "no binding"}
    ]},
    {"binder": "UGUGCCCGUCU (ssRNA)", "note": "[U5 (U5GGG, native)]", "values": [
      {"measurement": "Kd", "setting": "[5]", "result": "122 ± 10", "unit": "nM"}
    ]},
    {"binder": "UUUGCCCUUCU (ssRNA)", "note": "[U5UGU (G106U;G112U)]", "values": [
      {"measurement": "Kd", "setting": "[6]", "result": "812 ± 91", "unit": "nM"}
    ]},
    {"binder": "UUUGCCCGUCU (ssRNA)", "note": "[U5UGG (G106U)]", "values": [
      {"measurement": "Kd", "setting": "[7]", "result": "267 ± 20", "unit": "nM"}
    ]},
    {"binder": "UUUUCCCGUCU (ssRNA)", "note": "[U5UUG (G106U;G108U)]", "values": [
      {"measurement": "Kd", "setting": "[8]", "result": "547 ± 55", "unit": "nM"}
    ]}
  ]
}
